From paper PMC4585930 come the findings set out here.

This assay addresses GFP-CRN7 WT (UniProt Q55E54). Put plainly: pull-down, western blot band intensity. As to conditions: read off a plot.
Sequence of UniProt Q55E54 (Q55E54 whole entry): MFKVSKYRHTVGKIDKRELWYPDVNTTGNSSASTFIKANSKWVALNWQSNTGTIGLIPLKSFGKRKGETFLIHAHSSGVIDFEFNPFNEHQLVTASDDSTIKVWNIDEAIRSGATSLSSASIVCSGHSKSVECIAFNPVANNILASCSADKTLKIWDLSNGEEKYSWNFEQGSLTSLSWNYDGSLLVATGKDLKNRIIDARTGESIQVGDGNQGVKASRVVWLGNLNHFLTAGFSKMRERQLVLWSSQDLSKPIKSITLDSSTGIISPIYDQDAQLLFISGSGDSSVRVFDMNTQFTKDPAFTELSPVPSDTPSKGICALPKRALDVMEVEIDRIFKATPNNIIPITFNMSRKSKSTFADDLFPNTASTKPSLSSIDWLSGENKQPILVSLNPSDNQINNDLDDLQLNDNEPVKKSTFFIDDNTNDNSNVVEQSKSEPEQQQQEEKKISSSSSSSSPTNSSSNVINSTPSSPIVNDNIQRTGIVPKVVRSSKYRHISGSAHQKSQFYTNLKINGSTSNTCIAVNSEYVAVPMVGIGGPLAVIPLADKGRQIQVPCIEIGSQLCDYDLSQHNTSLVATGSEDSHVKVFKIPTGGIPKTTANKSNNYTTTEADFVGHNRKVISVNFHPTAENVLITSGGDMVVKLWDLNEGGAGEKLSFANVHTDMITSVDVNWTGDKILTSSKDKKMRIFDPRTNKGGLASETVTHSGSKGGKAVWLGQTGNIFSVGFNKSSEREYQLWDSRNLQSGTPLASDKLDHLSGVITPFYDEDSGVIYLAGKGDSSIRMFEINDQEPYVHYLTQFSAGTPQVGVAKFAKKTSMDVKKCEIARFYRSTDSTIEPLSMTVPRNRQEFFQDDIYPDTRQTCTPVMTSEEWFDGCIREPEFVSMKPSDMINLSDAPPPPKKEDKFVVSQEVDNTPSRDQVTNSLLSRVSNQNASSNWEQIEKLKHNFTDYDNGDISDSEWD

Consider “GST-RacC (from UniProt P34149) D to A (Mut2)”, for which the response (arbitrary units) by setting is: (RacC Mut2 loaded with GDP, parent: est. 61) 57; (RacC Mut2 loaded with GTPγS, parent: est. 39) 43.
For the substance “GST-RacC (from UniProt P34149) DD to QQ (Mut5)”, the response (arbitrary units) by setting is: (RacC Mut5 loaded with GDP, parent: est. 61) 51; (RacC Mut5 loaded with GTPγS, parent: est. 39) 49.
In the case of “GST-RacC (from UniProt P34149) ED to KK (Mut1)”, the response (arbitrary units) by setting is: (RacC Mut1 loaded with GDP, parent: est. 61) 52; (RacC Mut1 loaded with GTPγS, parent: est. 39) 48.
With “GST-RacC (from UniProt P34149) EE to KK (Mut4)”, the response (arbitrary units) reads like this: (RacC Mut4 loaded with GDP, parent: est. 61) 54; (RacC Mut4 loaded with GTPγS, parent: est. 39) 46.
On to GST-RacC (from UniProt P34149) Y40K, for which the response (arbitrary units) was 64 (RacC Mut3 loaded with GDP, parent: est. 61) and 36 (RacC Mut3 loaded with GTPγS, parent: est. 39).
